B1: library; numbered along this chain (parent)
chain: MAAAAAAAAEQQSSNGPVKKSMREKAVERRSVNKEHNSNFKAGYIPIDEDRLHKTGLRGRKGNLAICVIILLFILAVINLIITLVIWAVIRIGPNGCDSMEFHESGLLRFKQVSDMGVIHPLYKSTVGGRRNENLVITGNNQPIVFQQGTTKLSVENNKTSITSDIGMQFFDPRTQNILFSTDYETHEFHLPSGVKSLNVQKASTERITSNATSDLNIKVDGRAIVRGNEGVFIMGKTIEFHMGGNMELKAENSIILNGSVMVSTTRLPSSSSGDQLGSGDWVRYKLCMCADGTLFKVQVTSQNMGCQISDNPCGNTH

In this series the parent is B1. In words: SGCB cell-surface expression functional score (HA stain, bin4 vs bin1, normalised to synonymous) (log10 ratio); higher = more cell-surface SGCB (functional). In a few lines: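 Using lentivirus at MOI <0.1, HA-tagged, YFP-fused human beta-sarcoglycan codon-saturation libraries were put into HEK293 cells with stable alpha-, gamma- and delta-sarcoglycan expression, in duplicate transductions. YFP-positive cells were collected by sorting 72 hours later, grown 5–7 days, stained on ice with Alexa Fluor 647 anti-HA, fixed, sorted into four 5% intensity bins and amplicon-sequenced. The functional score takes the median, across codons and transductions, of the log ratio of highest-bin to lowest-bin variant frequency. Within each section, synonymous variants were scaled to mean 0, SD 0.5.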
For the variant MAAAAAAAAEQQSSNGPVKKSMREKAVERRSVNKEHNSNFKAGYIPIDEDRLHKTGLRGRKGNLAICVIILLFILAVINLIITLVIWAVIRIGPNGCDSMEFHESGLLRFKQVSDMGVIHPLYKSTVGGRRNENLVITGNNQPIVFQQGTTKLSVENNKTSITSDIGMQFFDPRTQNILFSTDYETHEFHLPSGVKSLNVQKASTERITSNATSDLNIKVDGRKIVRGNEGVFIMGKTIEFHMGGNMELKAENSIILNGSVMVSTTRLPSSSSGDQLGSGDWVRYKLCMCADGTLFKVQVTSQNMGCQISDNPCGNTH [A224K], the “SGCB cell-surface expression functional score (log10)” value was -2.05.

Turning to MAAAAAAAAEQQSSNGPVKKSMREKAVERRSVNKEHNSNFKAGYIPIDEDRLHKTGLRGRKGNLAICVIILLFILAVINLIITLVIWAVIRIGPNGCDSMEFHESGLLRFKQVSDMGVIHPLYKSTVGGRRNENLVITGNNQPIVFQQGTTKLSVENNKTSITSDIGMQFFDPRTQNILFSTDYETHEFHLPSGVKSLNVQKASTERITSNATSDLNIKVDGRLIVRGNEGVFIMGKTIEFHMGGNMELKAENSIILNGSVMVSTTRLPSSSSGDQLGSGDWVRYKLCMCADGTLFKVQVTSQNMGCQISDNPCGNTH [A224L], the “SGCB cell-surface expression functional score (log10)” value is 1.04.

For the variant MAAAAAAAAEQQSSNGPVKKSMREKAVERRSVNKEHNSNFKAGYIPIDEDRLHKTGLRGRKGNLAICVIILLFILAVINLIITLVIWAVIRIGPNGCDSMEFHESGLLRFKQVSDMGVIHPLYKSTVGGRRNENLVITGNNQPIVFQQGTTKLSVENNKTSITSDIGMQFFDPRTQNILFSTDYETHEFHLPSGVKSLNVQKASTERITSNATSDLNIKVDGRIIVRGNEGVFIMGKTIEFHMGGNMELKAENSIILNGSVMVSTTRLPSSSSGDQLGSGDWVRYKLCMCADGTLFKVQVTSQNMGCQISDNPCGNTH [A224I], the “SGCB cell-surface expression functional score (log10)” value was 1.

In the case of MAAAAAAAAEQQSSNGPVKKSMREKAVERRSVNKEHNSNFKAGYIPIDEDRLHKTGLRGRKGNLAICVIILLFILAVINLIITLVIWAVIRIGPNGCDSMEFHESGLLRFKQVSDMGVIHPLYKSTVGGRRNENLVITGNNQPIVFQQGTTKLSVENNKTSITSDIGMQFFDPRTQNILFSTDYETHEFHLPSGVKSLNVQKASTERITSNATSDLNIKVDGRGIVRGNEGVFIMGKTIEFHMGGNMELKAENSIILNGSVMVSTTRLPSSSSGDQLGSGDWVRYKLCMCADGTLFKVQVTSQNMGCQISDNPCGNTH [A224G], the “SGCB cell-surface expression functional score (log10)” value was -0.16.

In the case of MAAAAAAAAEQQSSNGPVKKSMREKAVERRSVNKEHNSNFKAGYIPIDEDRLHKTGLRGRKGNLAICVIILLFILAVINLIITLVIWAVIRIGPNGCDSMEFHESGLLRFKQVSDMGVIHPLYKSTVGGRRNENLVITGNNQPIVFQQGTTKLSVENNKTSITSDIGMQFFDPRTQNILFSTDYETHEFHLPSGVKSLNVQKASTERITSNATSDLNIKVDGRHIVRGNEGVFIMGKTIEFHMGGNMELKAENSIILNGSVMVSTTRLPSSSSGDQLGSGDWVRYKLCMCADGTLFKVQVTSQNMGCQISDNPCGNTH [A224H], the “SGCB cell-surface expression functional score (log10)” value is -0.71.

In the case of MAAAAAAAAEQQSSNGPVKKSMREKAVERRSVNKEHNSNFKAGYIPIDEDRLHKTGLRGRKGNLAICVIILLFILAVINLIITLVIWAVIRIGPNGCDSMEFHESGLLRFKQVSDMGVIHPLYKSTVGGRRNENLVITGNNQPIVFQQGTTKLSVENNKTSITSDIGMQFFDPRTQNILFSTDYETHEFHLPSGVKSLNVQKASTERITSNATSDLNIKVDGRMIVRGNEGVFIMGKTIEFHMGGNMELKAENSIILNGSVMVSTTRLPSSSSGDQLGSGDWVRYKLCMCADGTLFKVQVTSQNMGCQISDNPCGNTH [A224M], the “SGCB cell-surface expression functional score (log10)” value was 0.59.

Take MAAAAAAAAEQQSSNGPVKKSMREKAVERRSVNKEHNSNFKAGYIPIDEDRLHKTGLRGRKGNLAICVIILLFILAVINLIITLVIWAVIRIGPNGCDSMEFHESGLLRFKQVSDMGVIHPLYKSTVGGRRNENLVITGNNQPIVFQQGTTKLSVENNKTSITSDIGMQFFDPRTQNILFSTDYETHEFHLPSGVKSLNVQKASTERITSNATSDLNIKVDGRNIVRGNEGVFIMGKTIEFHMGGNMELKAENSIILNGSVMVSTTRLPSSSSGDQLGSGDWVRYKLCMCADGTLFKVQVTSQNMGCQISDNPCGNTH [A224N]: the “SGCB cell-surface expression functional score (log10)” value was -0.26.

Consider MAAAAAAAAEQQSSNGPVKKSMREKAVERRSVNKEHNSNFKAGYIPIDEDRLHKTGLRGRKGNLAICVIILLFILAVINLIITLVIWAVIRIGPNGCDSMEFHESGLLRFKQVSDMGVIHPLYKSTVGGRRNENLVITGNNQPIVFQQGTTKLSVENNKTSITSDIGMQFFDPRTQNILFSTDYETHEFHLPSGVKSLNVQKASTERITSNATSDLNIKVDGRDIVRGNEGVFIMGKTIEFHMGGNMELKAENSIILNGSVMVSTTRLPSSSSGDQLGSGDWVRYKLCMCADGTLFKVQVTSQNMGCQISDNPCGNTH [A224D], for which the “SGCB cell-surface expression functional score (log10)” value was -0.97.

Consider MAAAAAAAAEQQSSNGPVKKSMREKAVERRSVNKEHNSNFKAGYIPIDEDRLHKTGLRGRKGNLAICVIILLFILAVINLIITLVIWAVIRIGPNGCDSMEFHESGLLRFKQVSDMGVIHPLYKSTVGGRRNENLVITGNNQPIVFQQGTTKLSVENNKTSITSDIGMQFFDPRTQNILFSTDYETHEFHLPSGVKSLNVQKASTERITSNATSDLNIKVDGRFIVRGNEGVFIMGKTIEFHMGGNMELKAENSIILNGSVMVSTTRLPSSSSGDQLGSGDWVRYKLCMCADGTLFKVQVTSQNMGCQISDNPCGNTH [A224F], for which the “SGCB cell-surface expression functional score (log10)” value was 0.35.

Take MAAAAAAAAEQQSSNGPVKKSMREKAVERRSVNKEHNSNFKAGYIPIDEDRLHKTGLRGRKGNLAICVIILLFILAVINLIITLVIWAVIRIGPNGCDSMEFHESGLLRFKQVSDMGVIHPLYKSTVGGRRNENLVITGNNQPIVFQQGTTKLSVENNKTSITSDIGMQFFDPRTQNILFSTDYETHEFHLPSGVKSLNVQKASTERITSNATSDLNIKVDGREIVRGNEGVFIMGKTIEFHMGGNMELKAENSIILNGSVMVSTTRLPSSSSGDQLGSGDWVRYKLCMCADGTLFKVQVTSQNMGCQISDNPCGNTH [A224E]: the “SGCB cell-surface expression functional score (log10)” value is -1.01.
